The values that follow come from the DeepSol protein solubility set.

This data set can be described thus: soluble on expression in E. coli; label from the status in PepcDB or PDB records.
Consider “SKEIDISCVKIEQVIGAGEFGEVCSGHLKLPGKREIFVAIKTLKSGYTEKQRRDFLSEASIMGQFDHPNVIHLEGVVTKSTPVMIITEFMENGSLDSFLRQNDGQFTVIQLVGMLRGIAAGMKYLADMNYVHRALAARNILVNSNLVCKVSDFGLSRFLEDDTSDPTYTSALGGKIPIRWTAPEAIQYRKFTSASDVWSYGIVMWEVMSYGERPYWDMTNQDVINAIEQDYRLPPPMDCPSALHQLMLDCWQKDRNHRPKFGQIVNTLDKMIRNPNSLKAMAPLSS”, for which the “soluble on expression in E. coli” value was “soluble”.

As for “SANAEVSVPVGDVVVVPTEGNEGENPEDTKTQVILQLQPVQQGIYEAGSENNTAVVAVETHTIHKIEEGIDTGTIEANEDMEIAYPITCGESKAILLWKKFVCPGINVKCVKFNDQLISPKHFVHLAGKSTLKDWKRAIRLGGIMLRKMMDSGQIDFYQHDKVCSNTCRSTKFDLLISSARAPVPGQQTSVVQTPTSADGSITQIAISEESMEEAGLEWNSALTAAVTMATEEGVKKDSEEISEDTLMFWKGIADVGLMEEVVCNIQKEIEELLRGVQQRLIQAPFQVTDAAVLNNVAHTFGLMDTVKKVLDNRRNQVEQGEEQFLYTLTDLERQLEEQKKQGQDHRLKSQTVQNVVLMPVSTPKPPKRPRLQRPASTTVLSPSPPVQQPQFTVISPITITPVGQSFSMGNIPVATLSQGSSPVTVHTLPSGPQLFRYATVVSSAKSSSPDTVTIHPSSSLALLSSTAMQDGSTLGNMTTMVSPVELVAMESGLTSAIQAVESTSEDGQTIIEIDPAPDPEAEDTEGKAVILETELRTEEKVVAEMEEHQHQVHNVEIVVLED”, the “soluble on expression in E. coli” value is listed as “soluble”.

For “MHRSTFIRTSGTSSRTLTARYRSQYTGLLVARVLFSTSTTRAQGGNPRSPLQIFRDTFKKEWEKSQELQENIKTLQDASGKLGESEAYKKAREAYLKAQRGSTIVGKTLKKTGETMEHIATKAWESELGKNTRKAAAATAKKLDESFEPVRQTKIYKEVSEVIDDGESSRYGGFITKEQRRLKRERDLASGKRHRAVKSNEDAGTAVVATNIESKESFGKKVEDFKEKTVVGRSIQSLKNKLWDESENPLIVVMRKITNKVGGFFAETESSRVYSQFKLMDPTFSNESFTRHLREYIVPEILEAYVKGDVKVLKKWFSEAPFNVYAAQQKIFKEQDVYADGRILDIRGVEIVSAKLLAPQDIPVLVVGCRAQEINLYRKKKTGEIAAGDEANILMSSYAMVFTRDPEQIDDDETEGWKILEFVRGGSRQFT”, the “soluble on expression in E. coli” value is “not soluble”.

Consider “GSHMSQSFGRVLTIVHSDCALLERDGNISLLSLPVAERWLRQAQLTPGEAPVCAQPLLIPLRLKVSAEEKSALEKAQSALAELGIDFQSDAQHVTIRAVPLPLRQQNLQILIPELIGYLAKQSVFEPGNIAQWIARNLMSEHAQWSMAQAITLLADVERLCPQLVKTPPGGLLQSVDLHPAIKALKDE”, for which the “soluble on expression in E. coli” value was “soluble”.

“MAKKRGKPEIDWTDDDKEIIWVSKSEIKRDSEHLKKLGAELIELTPQNLEKIPLDEDLKYAIRQAQSFKLEARRRQIQFIGKLLRNRDSAPIQDALDKVKNRHNQQQALLHKLELIRDQLINMGDASLNQLLSEYPQLDRQHLRNLIRMAQKEKQINKPAKNYHEILQYLKSELIV”: the “soluble on expression in E. coli” value is “not soluble”.

As to “MNNQYLQFVREQLIIATADLSGATKGQLEAWQENAMFDTGRYRRKKIRYRDEVTGKMITRDNPPIPGKQSLAKGTSIPLVSPVEFSTSSWRRAVLSLEEHYKAWLLWCYSGSICWEYQIAITQWAWNEFNAQSGTRKIAGKTQERLKKLIWLAAQAVKAELFGGEGYEYQELALLAGVTTKNWSKTFTRHWVAMKHIFHRLDSEALLFVMRTRSKKRRHFQSKVLQK”, the “soluble on expression in E. coli” value was “not soluble”.

Turning to “MREEFLEEIPLDAPPEEAKELRTEVMTLNVGPQHPSTHGVLRLMVTLSGEEVLEVVPHIGYLHTGFEKTMEHRTYLQNITYTPRMDYLHSFAHDLAYALAVEKLLGAVVPPRAETIRVILNELSRLASHLVFLGTGLLDLGALTPFFYAFRERETILDLFEWVTGQRFHHNYIRIGGVKEDLPEEFVPELKKLLEVLPHRIDEYEALFAESPIFYERARGVGVIPPEVAIDLGLTGGSLRASGVNYDVRKAYPYSGYETYTFDVPLGERGDVFDRMLVRIREMRESVKIIKQALERLEPGPVRDPNPQITPPPRHLLETSMEAVIYHFKHYTEGFHPPKGEVYVPTESARGELGYYIVSDGGSMPYRVKVRAPSFVNLQSLPYACKGEQVPDMVAIIASLDPVMGDVDR”, the “soluble on expression in E. coli” value is “soluble”.

As to “MGSSHHHHHHSSGLVPRGSHMTVEQTPENPGTAARAAAEETVNDILQGAWKARAIHVAVELGVPELLQEGPRTATALAEATGAHEQTLRRLLRLLATVGVFDDLGHDDLFAQNALSAVLLPDPASPVATDARFQAAPWHWRAWEQLTHSVRTGEASFDVANGTSFWQLTHEDPKARELFNRAMGSVSLTEAGQVAAAYDFSGAATAVDIGGGRGSLMAAVLDAFPGLRGTLLERPPVAEEARELLTGRGLADRCEILPGDFFETIPDGADVYLIKHVLHDWDDDDVVRILRRIATAMKPDSRLLVIDNLIDERPAASTLFVDLLLLVLVGGAERSESEFAALLEKSGLRVERSLPCGAGPVRIVEIRRA”, the “soluble on expression in E. coli” value is given as “soluble”.

As to “ADKKRALEKEDMERLMKDIPKQLHSGNRELQRARGFFILMFLLRGMPFVDLAYLKKHDIDGNVLTYRRRKTGRMLTVTLLPEAVKLIKQHMNTDPAFPYLFSLISSKEGTEEAYKEYQLALRNFNYQLMILKQVLGLTTDLSSYTARHTWATMAYYCEVHPGVISEAMGHSSITVTETYLKPFKNKKIDEANVMVFSSFRKSFSVGNCLN”, the “soluble on expression in E. coli” value is on record as “not soluble”.

As to “MSLATPSFGNSSPQLTFTHVANFMNDAAADVSAVDAKQLAQIRQFLKANKTNLIESLNTIRQNVTSSGDHNKLRSTIANLLQINVDNDPFFAQSEDLSHAVEFFMSERSSRLHIVYSLLVNPDIDLETYSFIDNDRFNVVGKLISIISSVIQNYDIITASSLAHDYNNDQDMFTIVSLVQLKKFSDLKFILQILQILNLMILNTKVPVDIVNQWFLQYQNQFVEFCRNINSTDKSIDTSSLQLYKFQNFQDLSYLSETLISRISSLFTITTILILGLNTSIAQFDIQSPLYMDTETFDTVNSALENDVATNIVNEDPIFHPMIHYSWSFILYYRRALQSSESFDDSDITKFALFAESHDVLQKLNTLSEILSFDPVYTTVITVFLEFSLNFIPITASTSRVFAKIISKAPEQFIENFLTNDTFEKKLSIIKAKLPLLNESLIPLINLALIDTEFANFELKDICSFAVTKSSLNDLDYDLIADTITNSSSSSDIIVPDLIELKSDLLVAPPLENENSNCLLSIPKSTKGKILTIKQQQQQQQNGQQPPTTSNLIIFLYKFNGWSLVGRILQNLLHSYMEKGTQLDDLQHELMISIIKLVTNVVDPKTSIEKSSEILSYLSNSLDTSASTINGASIIQVIFEIFEISLQRKDYTSIVQCCEFMTMLTPNYLHLVSSYLNKSDLLDKYGKTGLSNMILGSVELSTGDYTFTIQLLKLTKVFIRESLSLKNIHISKRSKIDIINKLILHAIHIFESYYNWKYNNFLQKFEIAFHLTLIFYDVLHDVFTINPHQKDQLIISSSANKLLQLFLTPMDSIDLAPNTLTNILISPLNTTTKILGDKILGNLYSKVMNNSFKLCTLLISIRGSNRDLKPSNLEKLLFINSSKLVDVYTLPSYVHFKVQIIELLSYLVEAPWNDDYPFLLSFLGEAKSMAFLKEVLSDLSSPVQDWNLLRSLYIFFTTLLESKQDGLSILFLTGQFASNKKINDESSIDKKSSILTVLQKNSLLLDSTPEEVSCKLLETITYVLNTWTNSKIFIKDPKFVNSLLAKLKDSKKLEGHHHHHH”, the “soluble on expression in E. coli” value is listed as “not soluble”.

Consider “AHHHHHHGSFTGKVLIPVKVLKKFENWNEGDMILLEDWKAKELWESGVVEIIDEADKVIGEIDRVLSEEKKNLPLTPIPEGLYEKAEFYIYYLEKYIQEKVDNIETIQTKVTKLANLKKKYKTLKEIRFKKILEAVRLRPNSMEILARLSPAEKRIYLEISKIRREWIGD”, for which the “soluble on expression in E. coli” value is “not soluble”.

Turning to “MGSDKIHHHHHHAVFVAVGIRMITSGDGRTNRYDVEAGNNTYDNAVIENSKISEKNKIQNNQSMLDDIMNSTQYPKQLKDLALKNEEALEFVFDYPAEHVKEHTIDLTEEASMDSVPLFVQWDKRWGYEKYSGNFFAASGCGPTTLSMVVVYLTHNREASPIAVAKYSKEAGYSVDGSGSSWTLISEGCMHYGVKAKAVALDESRMKAELDEGHPIVVNVGPGDFTDTGHFMVITGYDDEGFSINDPNSIEKSGKRWLFKNISSQIRAVWSMYV”, the “soluble on expression in E. coli” value is “not soluble”.

Take “MFTIRKATSDDCKLINELANQVFPATYKEILSTEQLDYMMEWMYAPENIRKQMEEEGHVYFIAYQGDEPCGYVSVQPQDADVFHLQKIYVLPGFQGAHLGSKLFDHAVQYIKEIHPSPCLMELNVNRNNKALHFYEHKGMKKLREGDFPIGNGYYMNDYIMGLEL”: the “soluble on expression in E. coli” value was “not soluble”.

Take “MGSDKIHHHHHHMKRAYAMPLTNPSFPPGPYRFFDREYIIITYRTTREALEAVVPAPLEIDEPLVKYEFIRMPDSTGFGDYTETGQVIPVKYKGQHGGYVHSMYLDDDAPIAGGRELWGFPKKLANPKIVHEGEVIVGTLHYGSVLCATGTMGYKHREADHDSVLASLAAPNFLIKIIPHVDGGPRICELVRYYLTDITLKEAWTAPAALDLRPHVMADVAKLPVLDIISAVHFKADLTLGLGEVVHDYLSDHNRLATSTTQPEKIRA”: the “soluble on expression in E. coli” value was “not soluble”.

In the case of “MGHHHHHHSHMGQFYEAESCLVEAGRLPAGQRRFAHFPGLASELLLTGLPLELIDGSTLSMPVRWVTGLLKELHVRLERRSRLVVLSTVGVPGTGKSTLLNTMFGLRFATGKSCGPRGAFMQLITVAEGFSQDLGCDHILVIDSGGLIGGALTSAGDRFELEASLATLLMGLSNVTVISLAETKDIPAAILHAFLRLEKTGHMPNYQFVYQNLHDVSVPGPRPRDKRQLLDPPGDLSRAAAQMEKQGDGFRALAGLAFCDPEKQHIWHIPGLWHGAPPMAAVSLAYSEAIFELKRCLLENIRNGLSNQNKNIQQLIELVRRL”, the “soluble on expression in E. coli” value is “not soluble”.

“MSRQACKKSFSCGSQGFSGHSAVVSGSSRSSCVARSGAASGGACGFRSGAGSLGSHSLYSLGGSKSISISVAAGGSRAGGFSGGRSSCGSGFGSGYGGSLGGSRGMGAGFGGPSGFGGAGGFGRPGSFGPGSCPGGIQEVTINQSLLQPLNVEIDPQIGQVKAQEREQIKTLNNKFASFIDKVRFLEQQNKVLETKWELLQQQTIRSGSGPQNLEPFFESCISCLRKQLDSLLGAKGSLEGELKSMQDLVEDFKKKYEEEINRRTAAENEFVGLKKDVDGAFMNKVELQAKVDSLTDEINFLRTLYDMELSQIQSHVSDTSVVLSMDNNRCLDLDSIIAEVKAQYEDIAQKSKAEAEALYQTKLGELQTTAGRHGDDLRSTKSEIMDLNRMIQRLRAEIENVKKQNTNMQTSIAEAEQRGERALKDADTKFQYLQVALQKAKEDMARLLKEYQELMNVKLALDVEIATYRKLLEGEECRLSGEFQNAVSISVVSNVTSTSSSGSFRGTGGSNYGGDSSGRSGGSSSSSSRGSSSRGSSGSRLGSGGSISVSQQRMGFNSGGSQTSVGSSYKSGRGGSSSVQFSQTTSSSQQRSK”: the “soluble on expression in E. coli” value is “soluble”.

With “MSLEYFDMRKMSVNLWRNAAGETREICTFPPAKRDFYWRASITSIAANGEFSLFPGMERIVTLLEGGEMFLESADRFNHTLKPLQPFSFAADLVVKAKLTAGQMSMDFNIMTRLDVCKAKVRIAERTFTTFGSRGGVVFVINGAWQLGDKLLTTDQGACWFDGRHTLRLLQPQGKLLFSEINWLAGHSEGHHHHHH”, the “soluble on expression in E. coli” value was “not soluble”.
